From publication PMC2114023 (The Journal of Cell Biology, 1985) come the findings set out here.

The test addresses clathrin heavy chain (bovine brain) (bovine, UniProt P49951 1-1675, 3H-labelled by reductive methylation). The test is described as follows: co-IP.

clathrin heavy chain (bovine brain), sequence (P49951 whole entry): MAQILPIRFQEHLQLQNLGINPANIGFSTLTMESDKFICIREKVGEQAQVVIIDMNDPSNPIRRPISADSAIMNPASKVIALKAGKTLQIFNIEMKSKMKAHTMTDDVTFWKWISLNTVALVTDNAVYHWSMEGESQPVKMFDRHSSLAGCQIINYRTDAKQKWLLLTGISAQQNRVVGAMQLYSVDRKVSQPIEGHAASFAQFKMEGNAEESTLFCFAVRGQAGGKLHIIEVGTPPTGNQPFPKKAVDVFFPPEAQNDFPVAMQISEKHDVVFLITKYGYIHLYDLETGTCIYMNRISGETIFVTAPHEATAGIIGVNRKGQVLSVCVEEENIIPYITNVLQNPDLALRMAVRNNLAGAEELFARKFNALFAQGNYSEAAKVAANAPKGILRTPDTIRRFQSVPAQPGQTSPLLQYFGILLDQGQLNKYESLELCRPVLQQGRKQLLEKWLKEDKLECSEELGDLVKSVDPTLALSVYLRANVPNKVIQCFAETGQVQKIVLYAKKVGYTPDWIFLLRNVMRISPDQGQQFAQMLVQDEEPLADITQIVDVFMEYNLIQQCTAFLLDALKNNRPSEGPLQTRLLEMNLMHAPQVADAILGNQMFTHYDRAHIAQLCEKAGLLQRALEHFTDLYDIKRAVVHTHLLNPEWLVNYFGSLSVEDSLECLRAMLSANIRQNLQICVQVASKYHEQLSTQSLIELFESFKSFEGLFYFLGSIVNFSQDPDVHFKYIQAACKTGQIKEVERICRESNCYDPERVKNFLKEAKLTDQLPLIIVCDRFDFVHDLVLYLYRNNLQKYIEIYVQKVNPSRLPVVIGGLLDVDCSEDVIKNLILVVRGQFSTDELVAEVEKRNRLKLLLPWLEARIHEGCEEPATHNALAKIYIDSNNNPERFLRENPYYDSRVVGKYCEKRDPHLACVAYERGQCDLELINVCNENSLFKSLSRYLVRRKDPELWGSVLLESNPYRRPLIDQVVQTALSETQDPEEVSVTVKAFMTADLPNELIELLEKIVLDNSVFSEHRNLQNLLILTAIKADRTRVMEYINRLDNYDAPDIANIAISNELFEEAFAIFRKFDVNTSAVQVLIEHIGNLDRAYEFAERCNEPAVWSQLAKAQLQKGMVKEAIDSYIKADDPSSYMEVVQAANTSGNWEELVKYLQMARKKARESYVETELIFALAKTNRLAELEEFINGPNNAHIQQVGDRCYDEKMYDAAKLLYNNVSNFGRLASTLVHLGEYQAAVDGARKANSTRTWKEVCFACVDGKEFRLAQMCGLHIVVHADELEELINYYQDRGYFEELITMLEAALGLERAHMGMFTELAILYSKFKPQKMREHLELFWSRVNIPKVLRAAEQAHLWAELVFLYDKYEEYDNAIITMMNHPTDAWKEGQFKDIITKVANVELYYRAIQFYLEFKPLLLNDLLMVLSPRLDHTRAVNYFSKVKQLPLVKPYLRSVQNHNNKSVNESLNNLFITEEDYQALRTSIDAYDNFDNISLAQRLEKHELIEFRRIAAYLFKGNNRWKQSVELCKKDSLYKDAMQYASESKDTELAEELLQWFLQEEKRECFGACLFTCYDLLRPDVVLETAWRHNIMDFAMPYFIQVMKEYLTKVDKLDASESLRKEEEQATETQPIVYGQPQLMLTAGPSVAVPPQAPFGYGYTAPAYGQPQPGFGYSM

B1: clathrin light chain LCa (bovine brain) (natural protein, UniProt P04973 1-243, looked up)
chain: MAELDPFGVPAGGPALGNGVAGEEDPAAAFLAQQESEIAGIENDEAFAILDGGAPGSQPHGEPPGIPDAVDGVTNGDYYQESNGPTDSYAAISQVDRLQSEPESIRKWREEQTERLEALDANSRKQEAEWKEKAIKELDEWYARQDEQLQKTKANNRVADEAFYKQPFADVIGYVTNINHPCYSLEQAAEEAFVNDIEESSPGTEWERVARLCDFNPKSSKQAKDVSRMRSVLISLKQAPLVH
As to B1, the binding result is on record as “binds”.
